In patent US20140223597A1, “Mutated Hydroxyphenylpyruvate Dioxygenase, DNA Sequence and Isolation of Plants Which Are Tolerant To HPPD Inhibitor Herbicides” (Bayer CropScience AG, priority 2008, published 2014):

Assays:
[1] = test system: Arabidopsis thaliana HPPD; experiment: Assay for HPPD activity (4-HPP consumption, DNP photometric readout at 405 nm) in presence and absence of Tembotrione; format: biochemical; conditions: uninhibited enzyme activity set to 100%, 444 nM HPPD, 500 μM 4-HPP, 1 h room temperature
Method: (§1) HPPD produces homogentisate and CO2 from 4-HPP and O2. The enzyme is incubated with its substrate 4-HPP in the presence or absence of an inhibitor. L-ascorbic acid is present as a reductant to retain the active site iron in the ferrous form and Catalase is present to degrade toxic H2O2. After an incubation time of one hour, the reaction is stopped by addition of 2,4-Dinitrophenylhydrazine (DNP). DNP forms a hydrazone derivative with the remaining 4-HPP molecules in the assay mixture which appears in an amber-brown colour at an alkaline pH. The amount of unconsumed 4-HPP is measured photometrically at 405 nm.
(§2) For preparation of inhibitor stock solutions, Tembotrione (MW=440.82) and DKN (Mw=359.3) are dissolved in DMSO to a concentration of 10 mM. […] Further dilutions are made with ddH2O to obtain the inhibitor solutions used in the assay (5 μM, 10 μM and 20 μM). […] A 2% DMSO solution provides for half of the assay mixture in uninhibited reactions to normalize a possible inhibiting effect of DMSO.
(§3) The assay is designed for a HPPD concentration of 444 nM on a monomeric basis and a 4-HPP concentration of 500 μM. This corresponds to 44.4 pmol HPPD and 50 nmol 4-HPP in a 100 μL-assay mixture, resulting in an approximate 1000-fold excess of substrate in relation to the enzyme. The calculated theoretical molecular weight of an AtHPPD subunit is 49.515 kD which results in 2.2 μg HPPD per assay mixture. The calculated theoretical molecular weight of a PfHPPD subunit is 41.205 kD, resulting in 1.8 μg HPPD per assay mixture. The enzyme solution provides for one quarter of the assay mixture volume, so enzyme stock solutions are produced by diluting AtHPPD solutions to 88 μg*mL^−1 with 50 mM TRIS buffer; PfHPPD solutions are diluted to 72 μg*mL^−1.
(§4) The inhibitor concentrations (2.5 μM, 5 μM and 10 μM) provide for 5-fold, 10-fold and 20-fold excess of inhibitor compared to the amount of enzyme. A buffer/substrate solution is prepared which provides for one quarter of the assay mixture. 2.5 mL of buffer/substrate solution contain 1 mL 1 M TRIS buffer, 500 μL 10 mM 4-HPP solution, 500 μL 200 mM L-ascorbic acid solution, 13 μL Catalase solution and 487 μL ddH2O. The assay is carried out in Greiner F-bottom 96 well microplates and all reactions are carried out as triplicates. The controls are carried out sixfold per plate and contain either 25 μL 50 mM TRIS instead of HPPD solution (corresponding to 0% consumption of 4-HPP) or a buffer/substrate solution that contains 500 μL 1 M TRIS instead of 500 μL 10 mM 4-HPP (corresponding to 100% consumption of HPP). The reaction is started by addition of 25 μL HPPD solution to a mixture of 50 μL of the respective inhibitor solution or 50 μL 2% DMSO and 25 μL buffer/substrate solution. The reaction is allowed to proceed for 1 h at room temperature. The reaction is stopped and coloration of 4-HPP is induced by addition of 50 μL 0.04% DNP/3.8 N HCl solution. After 15 min, addition of 100 μL 5 N KOH leads to the colour shift of the hydrazone derivative. Photometric measurement with a BMG FLUOstar Galaxy microplate reader is carried out immediately at 405 nm and data obtained is used for analysis of HPPD activities in presence and absence of an inhibitor.

[2] = test system: Pseudomonas fluorescens HPPD; experiment: as above; format: biochemical; conditions: uninhibited enzyme activity set to 100%, 444 nM HPPD, 500 μM 4-HPP, 1 h room temperature
Method: as §1, §2, §3, §4

Row | Molecule | Relative activity (in percentage) of At HPPD mutants in presence of Tembotrione ([1]; 5 μM Tembotrione) | Relative activity (in percentage) of At HPPD mutants in presence of Tembotrione ([1]; 10 μM Tembotrione) | Relative activity (in percentage) of At HPPD mutants in presence of Tembotrione ([1]; […] Tembotrione) | Relative activity (in percentage) of Pf HPPD mutants in presence of Tembotrione ([2]; 5 μM Tembotrione) | Relative activity (in percentage) of Pf HPPD mutants in presence of Tembotrione ([2]; 10 μM Tembotrione) | Relative activity (in percentage) of Pf HPPD mutants in presence of Tembotrione ([2]; […] Tembotrione)
1 | Asp (protein, UniProt P93836 1-445, looked up, variant G422D) 4-hydroxyphenylpyruvate …: MGHQNAAVSENQNHDDGAASSPGFKLVGFSKFVRKNPKSDKFKVKRFHHIEFWCGDATNVARRFSWGLGMRFSAKSDLSTGNMVHASYLLTSGDLRFLFTAPYSPSLSAGEIKPTTTASIPSFDHGSCRSFFSSHGLGVRAVAIEVEDAESAFSISVANGAIPSSPPIVLNEAVTIAEVKLYGDVVLRYVSYKAEDTEKSEFLPGFERVEDASSFPLDYGIRRLDHAVGNVPELGPALTYVAGFTGFHQFAEFTADDVGTAESGLNSAVLASNDEMVLLPINEPVHGTKRKSQIQTYLEHNEGAGLQHLALMSEDIFRTLREMRKRSSIGGFDFMPSPPPTYYQNLKKRVGDVLSDDQIKECEELGILVDRDDQGTLLQIFTKPLGDRPTIFIEIIQRVGCMMKDEEGKAYQSGGCGGFGKDNFSELFKSIEEYEKTLEAKQLVG | 7% | 10% | 20% | 9% | 0% | 18%
2 | Phe (protein, UniProt P93836 1-445, looked up, variant G422F) 4-hydroxyphenylpyruvate …: MGHQNAAVSENQNHDDGAASSPGFKLVGFSKFVRKNPKSDKFKVKRFHHIEFWCGDATNVARRFSWGLGMRFSAKSDLSTGNMVHASYLLTSGDLRFLFTAPYSPSLSAGEIKPTTTASIPSFDHGSCRSFFSSHGLGVRAVAIEVEDAESAFSISVANGAIPSSPPIVLNEAVTIAEVKLYGDVVLRYVSYKAEDTEKSEFLPGFERVEDASSFPLDYGIRRLDHAVGNVPELGPALTYVAGFTGFHQFAEFTADDVGTAESGLNSAVLASNDEMVLLPINEPVHGTKRKSQIQTYLEHNEGAGLQHLALMSEDIFRTLREMRKRSSIGGFDFMPSPPPTYYQNLKKRVGDVLSDDQIKECEELGILVDRDDQGTLLQIFTKPLGDRPTIFIEIIQRVGCMMKDEEGKAYQSGGCGGFGKFNFSELFKSIEEYEKTLEAKQLVG | 16% | 11% | 30% | 12% | 3% | 33%
3 | Leu (protein, UniProt P93836 1-445, looked up, variant G422L) 4-hydroxyphenylpyruvate …: MGHQNAAVSENQNHDDGAASSPGFKLVGFSKFVRKNPKSDKFKVKRFHHIEFWCGDATNVARRFSWGLGMRFSAKSDLSTGNMVHASYLLTSGDLRFLFTAPYSPSLSAGEIKPTTTASIPSFDHGSCRSFFSSHGLGVRAVAIEVEDAESAFSISVANGAIPSSPPIVLNEAVTIAEVKLYGDVVLRYVSYKAEDTEKSEFLPGFERVEDASSFPLDYGIRRLDHAVGNVPELGPALTYVAGFTGFHQFAEFTADDVGTAESGLNSAVLASNDEMVLLPINEPVHGTKRKSQIQTYLEHNEGAGLQHLALMSEDIFRTLREMRKRSSIGGFDFMPSPPPTYYQNLKKRVGDVLSDDQIKECEELGILVDRDDQGTLLQIFTKPLGDRPTIFIEIIQRVGCMMKDEEGKAYQSGGCGGFGKLNFSELFKSIEEYEKTLEAKQLVG | 23% | 14% | 31% | 0% | 0% | 4%
4 | His (protein, UniProt P93836 1-445, looked up, variant G422H) 4-hydroxyphenylpyruvate …: MGHQNAAVSENQNHDDGAASSPGFKLVGFSKFVRKNPKSDKFKVKRFHHIEFWCGDATNVARRFSWGLGMRFSAKSDLSTGNMVHASYLLTSGDLRFLFTAPYSPSLSAGEIKPTTTASIPSFDHGSCRSFFSSHGLGVRAVAIEVEDAESAFSISVANGAIPSSPPIVLNEAVTIAEVKLYGDVVLRYVSYKAEDTEKSEFLPGFERVEDASSFPLDYGIRRLDHAVGNVPELGPALTYVAGFTGFHQFAEFTADDVGTAESGLNSAVLASNDEMVLLPINEPVHGTKRKSQIQTYLEHNEGAGLQHLALMSEDIFRTLREMRKRSSIGGFDFMPSPPPTYYQNLKKRVGDVLSDDQIKECEELGILVDRDDQGTLLQIFTKPLGDRPTIFIEIIQRVGCMMKDEEGKAYQSGGCGGFGKHNFSELFKSIEEYEKTLEAKQLVG | 31% | 40% | 50% | 13% | 11% | 26%
5 | Pro (protein, UniProt P93836 1-445, looked up, variant G422P) 4-hydroxyphenylpyruvate …: MGHQNAAVSENQNHDDGAASSPGFKLVGFSKFVRKNPKSDKFKVKRFHHIEFWCGDATNVARRFSWGLGMRFSAKSDLSTGNMVHASYLLTSGDLRFLFTAPYSPSLSAGEIKPTTTASIPSFDHGSCRSFFSSHGLGVRAVAIEVEDAESAFSISVANGAIPSSPPIVLNEAVTIAEVKLYGDVVLRYVSYKAEDTEKSEFLPGFERVEDASSFPLDYGIRRLDHAVGNVPELGPALTYVAGFTGFHQFAEFTADDVGTAESGLNSAVLASNDEMVLLPINEPVHGTKRKSQIQTYLEHNEGAGLQHLALMSEDIFRTLREMRKRSSIGGFDFMPSPPPTYYQNLKKRVGDVLSDDQIKECEELGILVDRDDQGTLLQIFTKPLGDRPTIFIEIIQRVGCMMKDEEGKAYQSGGCGGFGKPNFSELFKSIEEYEKTLEAKQLVG | 0% | 0% | 0% | 4% | 0% | 5%
6 | Val (protein, UniProt P93836 1-445, looked up, variant G422V) 4-hydroxyphenylpyruvate …: MGHQNAAVSENQNHDDGAASSPGFKLVGFSKFVRKNPKSDKFKVKRFHHIEFWCGDATNVARRFSWGLGMRFSAKSDLSTGNMVHASYLLTSGDLRFLFTAPYSPSLSAGEIKPTTTASIPSFDHGSCRSFFSSHGLGVRAVAIEVEDAESAFSISVANGAIPSSPPIVLNEAVTIAEVKLYGDVVLRYVSYKAEDTEKSEFLPGFERVEDASSFPLDYGIRRLDHAVGNVPELGPALTYVAGFTGFHQFAEFTADDVGTAESGLNSAVLASNDEMVLLPINEPVHGTKRKSQIQTYLEHNEGAGLQHLALMSEDIFRTLREMRKRSSIGGFDFMPSPPPTYYQNLKKRVGDVLSDDQIKECEELGILVDRDDQGTLLQIFTKPLGDRPTIFIEIIQRVGCMMKDEEGKAYQSGGCGGFGKVNFSELFKSIEEYEKTLEAKQLVG | 22% | 14% | 43% |  |  | 
7 | Met (protein, UniProt P93836 1-445, looked up, variant G422M) 4-hydroxyphenylpyruvate …: MGHQNAAVSENQNHDDGAASSPGFKLVGFSKFVRKNPKSDKFKVKRFHHIEFWCGDATNVARRFSWGLGMRFSAKSDLSTGNMVHASYLLTSGDLRFLFTAPYSPSLSAGEIKPTTTASIPSFDHGSCRSFFSSHGLGVRAVAIEVEDAESAFSISVANGAIPSSPPIVLNEAVTIAEVKLYGDVVLRYVSYKAEDTEKSEFLPGFERVEDASSFPLDYGIRRLDHAVGNVPELGPALTYVAGFTGFHQFAEFTADDVGTAESGLNSAVLASNDEMVLLPINEPVHGTKRKSQIQTYLEHNEGAGLQHLALMSEDIFRTLREMRKRSSIGGFDFMPSPPPTYYQNLKKRVGDVLSDDQIKECEELGILVDRDDQGTLLQIFTKPLGDRPTIFIEIIQRVGCMMKDEEGKAYQSGGCGGFGKMNFSELFKSIEEYEKTLEAKQLVG | 13% | 12% | 18% | 7% | 10% | 16%
